Patent publication US20190256586A1 (Johns Hopkins, published 2019)

Target: T1, recombinant PSSP17 (117 amino acid fragment of P. falciparum PSSP17 with a HIS tag, expressed in E. coli) (Plasmodium falciparum)
T1 construct: Antigen used to raise 10E2B7 and 27C9B5; spiked into naive human saliva in the lateral flow assays; also called recombinant PfPSSP17; recombinant subunit PSSP17; not shown: HIS tag from the expression vector
T1 chain: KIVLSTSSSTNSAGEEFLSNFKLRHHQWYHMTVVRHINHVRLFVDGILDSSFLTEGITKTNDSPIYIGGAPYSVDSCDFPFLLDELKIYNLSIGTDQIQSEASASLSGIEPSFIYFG
Assay: sandwich lateral flow immunoassay (gRAD strip, streptavidin test line); lower limit of detection of recombinant PSSP17 printed as 1-5 ng/mL

B1: anti-PF3D7_1218800 mAb 27C9.B5 IgG (antibody, V domains shown)
VH: QVQVRQSGAEVVRPGTSVRVSCKTSGYAFTDYLIEWVKQRPGQGLEWIGVINPVRGTTNYSEKFKGKATLTADKSSGTAYMQFYSLTSDDSAVYFCARSRGSDGFPYWGQGTLVTVSA
VL: DVLMTQTPLSLPVSLGDQASISCRSSQSIVHSNGYTYLEWYLQKPGQSPKLLIYKLSNRFSGVPDRFSGSGSGTDFTLKISRVEAEDLGVYYCFQGSHIPYTFGGGTKLEIK
notes: Used covalently coupled to Europium(III)-chelate carboxylate polystyrene microparticles as the detection antibody of the SMAART-PSSP17 lateral flow assay; also called EuChelate nanoparticle-conjugated anti-PSSP17 27C9.B5 mAb; MP-27C9.B5 conjugate
  binding result: binds

B2: anti-PSSP17 mAb 10E2.B7 IgG (antibody, V domains shown)
VH: EVQLVESGGDLVKPGGSLKLSCAASGFTFSSYGMSWVRQTPDKRLEWVATISSGGSYIYYPDSMKGRFTMSRDNAKNTLYLQMSSLKSEDTAMYYCAREERDWLAYWGQGTLVTVSA
VL: DVVMTQSPLSLPVSLGDQASISCRSSQSLIHNNGDIYVHWYLQKPGQSPKLLIYKVSNRFSGVPDRFSGSGSGTDFTFKISRVEAEDLGVYFCSQSSHVPPTFGGGTKLEIK
notes: Used biotinylated (20:1 biotin:antibody) as the capture antibody of the SMAART-PSSP17 lateral flow assay; also called biotinylated anti-PSSP17 10E2.B7; Bio-Ab
  binding result: binds
